# Results: paper PMC8866119 (Nature, 2021)
# Biological target: SARS-CoV-2 Omicron (B.1.1.529) RBD (SARS-CoV-2 Omicron B.1.1.529 (BA.1), strain)
row,Binder,binding result
1,"S304 (antibody, V domains shown) VH: EVQLVESGGGLVQPGGSLRLSCAASGFTFSSYDMHWVRQTTGKGLEWVSTIGTAGDTYYPDSVKGRFTISREDAKNSLYLQMNSLRAGDTAVYYCARGDSSGYYYYFDYWGQGTLLTVSS VL: DIEMTQSPSSLSAAVGDRVTITCRASQSIGSYLNWYQQKPGKAPKLLIYAASSLQSGVPSRFSGSGSGTDFTLTISSLQPEDFAIYYCQQSYVSPTYTFGPGTKVDIK",binds
2,"BD55-1294 (antibody, V domains shown) VH: QLHLQESGPGLVKPSETLSLTCTVSGGSIFSSTYYWGWIRQTPGKGLEWIGSFYNGGSTYYNPSLESRVTISEDTSKNQFSLKLSSVTAADTAVYYCARDLSETASYHNWFDPWGQGTLVTVSS VL: DIQLTQSPSFLSASVGDRITITCRASQAISNYLAWYQQKPGKAPKLLIYGASTLHSGVPSRFSGSHSGSEFTLTISGLQPEDFATYYCQQLNSFGPGTKVDIK",binds
3,"BD-692 (antibody, V domains shown) VH: EVQLVESGGGLVQPGGSLRLSCAASGFTFSSHGMNWVRQAPGKGLEWVSYISSRDSTIYYADSVKGRFTISRDNAKNSLYLQMNSLRDEDTAVYYCARDNSDYDYSFGAYYFDYWGQGTLVTVSS VL: EIVLTQSPATLSLSPGERATVSCRASQSVSNFLAWYQQKPGQAPRLLIHDASNRATGIPARFSGSGSGTDFTLTISSLEPEDFAVYYCQQRRNWPPVTFGQGTRLEIK",binds
4,"BD55-1831 (antibody, V domains shown) VH: QVQLQESGPGLVKPSQTLSLTCTVSGGSISNGDYYWSWIRQPPGKGLEWIGYIHNSGSTYKKLSLRSRLTISVDTSKNQFSLKLSSVTAADTAVYYCARTASPSGAWYFDFWGRGTLVTVSS VL: SYVLTQPPSVSVAPGQTARITCGGNDIGSKNVHWYQQKPGQAPLLVVYDDTDRPSGIPERFSGSNSGNPATLTISRVEAGDEADYYCQVWDSSFDHVIFGGGTKLTVL",binds
5,"DH1193 (antibody, V domains shown) VH: QVQLVESGGGVVQPGRSLRLSCAASGFTFSNYGMHWVRQAPGKGLEWVTVISYDGSNKYYADSVKGRFTISRDNSKNTLYLQMNSLRAEDTAVYYCAKVLTWSIHPEDYYYGMDVWGQGTTVTVSS VL: QSALTQPPSASGSPGQSVTISCTGTSSDVGGYNYVSWYQQHPGKAPKLMIYEVSQRPSGVPDRFSGSKSGNTASLTVSGLQAEDEADYYCSSYAGSNIGVFGGGTTLTVL",binds
6,"DH1044 (antibody, V domains shown) VH: QVQLVESGGGVVQPGRSLRLSCAASGFTFSSYGMHWVRQAPGKGLEWVAVISFDGSNKYYVDSVKGRFTISRDNSKNTLYLQMNSLRAEDTAVYYCAKDMHNDYGDYVSYYFYYGMDVWGQGTTVTVSS VL: QSVLTQPPSVSAAPGQKVIISCSGSSSNIGNNYVSWYQQLPGTAPKLLIYENNKRPSGIPDRFSGSKSGTSATLGITGLQTGDEADYYCGTWDSSLRTDVFGGGTKLIVL",binds
7,"BD-815 (antibody, V domains shown) VH: EVQLVQSGPEVKKPGESLKISCKASGYSFISNWIGWVRQMPGKGLEWMGIIYPGDSDTRYSPSFQGQVTISADRSITTAYLQWSSLKASDTAIYYCARLGSSWYWVDYWGQGTLVTVSS VL: SSELTQDPAVSVALGQTVRITCQGDSLRSYHASWYQQKPGQAPILVIYDKNNRPSGIPDRFSGSGSGNTASLTITGAQAEDEADYYCNSRDSSGDHLVFGTGTKVTVL",binds
8,"COV2-2103 (antibody, V domains shown) VH: EVQLVESGGGLVQPGGSLRLSCAASGFTFSRHWMTWVRQAPGKGLEWVANIKQDGSEKYYVDSVKGRLTISRDNAKNSLYLQMNSLRAEDTAVYYCARLGFYYGGADYWGQGTLVTVSS VL: NFMLTQPHSVSESPGKTVTISCTGSSGSIASNYVQWYQQRPGSAPTTVISEDNQRPSGVPDRFSGSIDSSSNSASLTISGLKTEDEADYYCQSYDGINRAWVFGGGTKLTVL",binds
9,"BD55-4325 (antibody, V domains shown) VH: QAQLVQSGAEVKKPGASVKVSCEAIGYAFKTYGISWVRQAPGQGLEWVGWISGHDGTTNYAQKFQGRVTLTTDTSTNTAFLEVKSLRSDDTAVFYCARDKAYSGYDYWSTIFDYWGQGTLVTVST VL: SYVLTQPPSVSVAPGKTATITCGGNNIRSKSVQWFQQRPGQAPILVLYYDTDRPSGIPERFSGSNSGNTATLTISRVEAGDEADYYCQVWDSTTDHYLFGTGTKVTVL",binds
10,"BD55-3500 (antibody, V domains shown) VH: QVQLVESGGGVVQPGRSLRLSCAASGFIFSRYDIHWVRQTPGKGLEWVALIRYDGSDKYYADSVKGRFTISRDNSKNTLYLQMNSLRVEDTAVYYCAKEGIQGYSGYDYFWTGFYFDYWGQGTLVTVSS VL: not shown",binds
11,"COV2-2389 (antibody, V domains shown) VH: EVQLVESGGGLVQPGRSLRLSCAASGFTFDDYAMHWVRQAPGKGLEWVSGISWNSGTIGYADSVKGRFIISRDNAKNSLYLQMNSLRPEDTALYYCAKDIIRQGEDGMDVWGQGTTVTVSS VL: DIQMTQSPSSLSASVGDRVTITCRASQNIASYLNWYQQKPGKAPKLLIYAASSLQSGVPSRFSGSGSGTDFTLTISSLQPEEFATYYCQQSYSTPWTFGQGTKVEIK",binds
12,"C556 (antibody, V domains shown) VH: QVQLVQSGAEVKKPGASVKVSCKASGYTFTYYYMHWVRQAPGQGLEWMGIINPSGGSTSYAQKFQGRVTMTRDTSTSTVYMELSSLRSEDTAVYYCARPLLPGETGSLNRLDYWGQGTLVTVSS VL: not shown",binds
13,"BD55-5300 (antibody, V domains shown) VH: QVQLVQSGAEVKKPGSSVKVSCKASGGSFTSHAVSWVRQAPGQGLEWMGVSIPLFGTAKYAQKFQGRVTITADESTSTVYMSLSNLRSGDTAVYYCARLFPNGTPTDLTAPSDYWGQGTLVTVSS VL: DIQMTQSPSSLSASVGDRVTITCQASQDIGNYLNWYQQKPGKAPKLLIYDASHLETGVPSRFSGSASGTDFTLTISSLQPDDIATYYCQRYDDVPTYTFGQGTKLEIK",binds
14,"BD55-3372 (antibody, V domains shown) VH: EVHLVESGGGLVKPGGSLRLSCAASGFTFSNYAMNWVRQAPGKGLQWVSSITGSSSFIFYADSVKGRFTIVRDNAQNSLYLQMNSLRDEDTAVYYCARERDDYDTRLDWGQGTLVTVSS VL: QPMLTQPPSVSGAPGQTVTISCVGSSSNIGAGYEVHWYQQLPGTAPKRLLSGNSDRPSGVPDRFSGSKSGTSASLAITGLQADDEADYYCQSYDSSLSLSAVVFGGGTKLTVL",binds
15,"BD55-3525 (antibody, V domains shown) VH: EVQVVESGGGLVKPGGSLRLSCAGSGFTFNYAWMNWVRQAPGKGLEWVGRIKSETGGGTTDYAAPVRGRFTISRDDSKDTVFLQMNSLKTEDTAVYYCTTEATVTSWDAFDVWGQGTLVTVST VL: QSVLTQPPSASGTSGQRVTISCSGSSSNIGSNTVNWYQQIPRRAPKLLIYRNNQRPSGVPDRFSASKSGTSASLAISGLHSEDEADYYCAAWDDRLNGFVFGTGTKVTVL",binds
16,"BD-907 (antibody, V domains shown) VH: QVQLVQSGSELKKPGASVKVSCKASGYTFSSYYLNWVRQAPGQGLEWMGWIDTNTGNPTYAQAFTGRFVFSLDTSVSTAYLQIGSLQANDTAVYYCAREGGGWSGLYYYFGMDVWGQGTTVTVSS VL: EIVLTQSPGTLSLSPGERATVSCRASQSIGSNYLAWYQQKPGQAPRLLIYGASSRATGIPDRFSGSGSGTDFTLTISRLEPEDFAVYYCQQYGSSPPYTFGQGTKLEIK",binds
17,"BD-796 (antibody, V domains shown) VH: QVQLVQSGAEVKKPGSSVKVSCKASGGTFSSYAINWMRQAPGQGLEWMGGIIPILGIPNSAQKFQGRVTITADKSTSTAYMELSSLRSEDTAVYYCARMYNYDSSGLEADAFDIWGQGTMVTVSS VL: QSVLTQPPSVSGAPGQRVTISCTGSSSNIGAGYDVHWYQQLPGTAPKLLIYGNSNRPSGVPDRFSGSKSGTSASLAITGLQAEDEADYYCQSYDSSLSGVVFGGGTKLTVL",binds
18,"BD-913 (antibody, V domains shown) VH: QVQLVQSGAEVKKPGSSVKVSCKASGGTFSTYAISWVRQAPGQGLEWMGGIIPIVGIANDAQKFQGRVTITADKSTSTAYMELSSLRSEDTAVFYCARAQRKQWPVEDAYDIWGQGTMVTVSS VL: QSVLTQPPSVSGAPGQRVTISCTGSSSNIGAGYDVHWYQQLPGTAPKLLIYGNSNRPSGVPDRFSGSKSGTSASLAITGLQAEDEADYYCQSYDSSLSGSVFGGGTKVTVL",binds
19,"C581 (antibody, V domains shown) VH: EVQLVQSGAEVKKPGESLKISCKGSGYRFTSYWIAWVRQMPGKGLEWMGIIYPGDSDTRYSPSFQGQVTISADQSISTAYLQWSSLKASDTAMYYCARGGPPGGVKLELTDYWGQGALVTVSS VL: not shown",binds
20,"BD55-5339 (antibody, V domains shown) VH: EVQLVESGEGLVQPGGSLRISCAASGFTFSNYPMHWVRQAPGQGLESVSSITSNGDGTFYANSVKGRFTISRDNSKNTLYLQMGSLRTEDTALYFCAREVAEQLDCYFDLWGRGTLVTVSS VL: DIQMTQSPSSLSASVGDRVTITCRASQSIRTYLNWYQHKPGKAPKLLIFAASSLQSGVPSRFSGSGSGTDFSLTISSLQPEDFATYYCQQSYITPPITFGQGTRLEIK",binds
21,"BD-923 (antibody, V domains shown) VH: EVLLVESGGGLVQPGRSLRLSCTASGFTFEDYAMHWVRQAPGKGLEWVSGMSWNSGTIGYADSVRGRFIISRDNAKNSLYLQMNSLRAEDTALYYCGKDRGFGESLYYVMDVWGQGATVTVSS VL: QSALTQPASVSGSPGQSITISCTGTSSDVGVYNYVSWYQQHPGKAPKLMIYNVSDRPSGVSNRFSGSKSGNTASLTISGLQAEDEADYYCSSYTSSSIVIFGGGTKLTVL",binds
22,"BD-713 (antibody, V domains shown) VH: EVQLVESGGGLVQPGRSLRLSCAASGFTFDDYAMHWVRQAPGKGLEWVSGMSWNSGTIGYADSVKGRFTIIRDNAKNSLYLQMIRLRAEDTALYYCAKASPRLDTAMAPFDYWGQGTLVTVSS VL: SYVLTQPPSVSVAPGKTARITCGGNNIGSKSVHWYQQKPGQAPALVIYYDNDRPSGLPERFSGSNSGNTATLTISRVEAGDEADYYCQVWHSSSDSLVFGGGTKLTVL",binds
23,"C576 (antibody, V domains shown) VH: QVQLVQSGAEVKKPGSSVKVSCKASGGTFSIYAISWVRQAPGQGLEWMGGIIPILGTANYAQKFQGRVTITADESTSTAYMELSSLRSEDTAVYYCASFHVAYGDYIPFDYWGQGTLVTVSS VL: not shown",binds
